Measured values reported in the supplement of paper PMC10724198.
± gives the standard deviation of the averaged measurements.

Tested on: Saccharomyces cerevisiae
Assay: protein stability index of tFT-peptide fusion (C-terminal peptide) (PSI (0-1 scale)); higher = more stable (slower turnover)
Details: genetic background: wild type; temperature: 30 C
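Also: PSI is a weighted mean of sequencing reads over stability bins, variants kept only with over 10 reads, mCherry proximal and sfGFP distal, peptide attached via GGGS linker.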

Sequence	protein stability index
PILPPLVPSSRL	0.769 ± 0.07
PIMESARGFLCV	0.658 ± 0.052
PINIERNKRIKR	0.733 ± 0.021
PIPAPFFLAPPL	0.731 ± 0.06
PIPPPPPLRPSS	0.69 ± 0.011
PIPTQYPPPKAP	0.675 ± 0.069
PKKDNIQLQKPA	0.694 ± 0.028
PKPPPSSGRCPA	0.633 ± 0.011
PKRHLTFLPRGV	0.662 ± 0.036
PKWSVTPVAANL	0.695 ± 0.048
PLALPLPRLVLP	0.643 ± 0.026
PLCLCCPIGIIS	0.516 ± 0.008
PLFAPLCLNSNR	0.666 ± 0.016
PLFASLHPSGPL	0.699 ± 0.032
PLGDLGPRLRKP	0.669 ± 0.039
PLGPSTQHPLSI	0.687 ± 0.025
PLHMWFSLLKPS	0.716 ± 0.074
PLHNPPTRRTTP	0.67 ± 0.056
PLHPQPAATPRS	0.713 ± 0.023
PLHPSRPPPSSP	0.708 ± 0.033
PLIYFLASNSRF	0.713 ± 0.069
PLLDEQCLGIDS	0.658 ± 0.015
PLLPFRYTRSGT	0.68 ± 0.07

Sequence	protein stability index
PLLPLAASPPPP	0.683 ± 0.051
PLLPPLPPPLPP	0.692 ± 0.1
PLLPSPAPLHPP	0.583 ± 0.044
PLLRPRLRPFPR	0.704 ± 0.049
PLNQSYFVFSGN	0.724 ± 0.019
PLPIHSHPPPVP	0.615 ± 0.0068
PLPIPHASPTLA	0.641 ± 0.025
PLPIPSPLRSSF	0.689 ± 0.053
PLPLPPSVTSLL	0.729 ± 0.044
PLPPILPAPPPT	0.704 ± 0.028
PLPPLLPPSPPP	0.767 ± 0.0085
PLPPLPPPPPAA	0.682 ± 0.038
PLPPLPPPTAPP	0.693 ± 0.029
PLPPPPLLALCS	0.531 ± 0.02
PLPPPPPPPLPP	0.737 ± 0.011
PLPPPPRPPAPL	0.688 ± 0.0072
PLPPPPRPPPNP	0.665 ± 0.01
PLPPPPRPRPPL	0.721 ± 0.04
PLPPPPTPPVLP	0.691 ± 0.016
PLPPPRPSPGLL	0.67 ± 0.1
PLPPPSGLLSRL	0.902 ± 0.047
PLPPSHPPTGPP	0.661 ± 0.012
PLPPTFPSPLPP	0.665 ± 0.008

Sequence	protein stability index
PLPPTPPPLAPP	0.644 ± 0.086
PLPRHSSPLPHI	0.684 ± 0.0089
PLPRPPSPPYPP	0.65 ± 0.035
PLPRPRHHEPNS	0.75 ± 0.044
PLPRTPTLPTPE	0.635 ± 0.036
PLPSPPAPNSPQ	0.6793 ± 0.0053
PLPSSSTRSTSP	0.714 ± 0.013
PLPYPPTSPTPR	0.678 ± 0.0078
PLPYSPPLHVYP	0.691 ± 0.023
PLRAHLYRPSVP	0.69 ± 0.03
PLRALLPTRCNL	0.732 ± 0.067
PLRGRRPIFPAP	0.724 ± 0.088
PLRPPSSPLWHT	0.6937 ± 0.0037
PLRRSTSPLILL	0.648 ± 0.033
PLRSLNHSGRPP	0.641 ± 0.06
PLRSLPRPLSST	0.65913 ± 0.00011
PLRSPSYPPPPP	0.6814 ± 0.00091
PLRTLFGDHLLV	0.6826 ± 0.002
PLSLRLCYLPWY	0.701 ± 0.0086
PLSPLVPVRTRP	0.682 ± 0.072
PLSPPLPLPLPL	0.75 ± 0.037
PLSPPPAPLPSS	0.747 ± 0.071
PLSPPPPGPPAS	0.6037 ± 0.0024

Sequence	protein stability index
PLSPPPPPPLPA	0.71 ± 0.011
PLSPPPPTLPLP	0.714 ± 0.036
PLSPPPYPPRPL	0.721 ± 0.024
PLSPSPPPAFPA	0.794 ± 0.039
PLSWVLFSFFHA	0.697 ± 0.062
PLTPPLPPSPPP	0.711 ± 0.026
PLTTIPSPNSLE	0.666 ± 0.032
PLTVPLPLALSP	0.684 ± 0.047
PNHLDPPTLHVN	0.714 ± 0.021
PNKRLKERGDPS	0.695 ± 0.086
PNSSLLNLPRPP	0.744 ± 0.041
PPAAHPFAPFPS	0.71 ± 0.014
PPACPYPFRPLP	0.668 ± 0.025
PPACSPSPPRSS	0.723 ± 0.028
PPAHIFHPPPAR	0.699 ± 0.081
PPALHRPFPPPP	0.666 ± 0.016
PPALLAPAAPLP	0.652 ± 0.07
PPALPRFPACTT	0.714 ± 0.056
PPALSSNPVIPG	0.626 ± 0.099
PPAPAPPAPPPL	0.649 ± 0.027
PPAPLPAPRLAL	0.709 ± 0.036
PPAPPHPPPLSP	0.695 ± 0.04
PPAPPPASPGLV	0.7017 ± 0.0009

Sequence	protein stability index
PPAPPPCTPPPP	0.69493 ± 0.0002
PPATLIWAWFFR	0.67 ± 0.022
PPATPPRPPLPS	0.675 ± 0.057
PPATRSLSAASP	0.722 ± 0.0095
PPCAPPPSPLAC	0.684 ± 0.043
PPCHPPPTTSEK	0.677 ± 0.032
PPDTPRTQKADT	0.755 ± 0.029
PPELHTIRARQI	0.58 ± 0.082
PPFASSPPFIFL	0.705 ± 0.062
PPFLTTYPHLAP	0.71 ± 0.031
PPFPLSPLPPPL	0.71 ± 0.0047
PPFPPLPSPFTS	0.708 ± 0.018
PPFRSPPRHDPL	0.662 ± 0.015
PPGLPPIRCPPT	0.631 ± 0.037
PPGPPRPPPRTP	0.689 ± 0.0036
PPGSPPSLPPLP	0.711 ± 0.057
PPHASRAPPFPR	0.671 ± 0.047
PPHLPPSLSVLP	0.663 ± 0.057
PPHPLLSPPPFP	0.821 ± 0.088
PPHPPPPATPCP	0.682 ± 0.013
PPHPPPPFPPPP	0.744 ± 0.015
PPHPPPTTVHLA	0.7052 ± 0.002
PPHPSTPIPPPR	0.672 ± 0.012

Sequence	protein stability index
PPHPTPRTLPSP	0.691 ± 0.0027
PPHSHRSRHPPP	0.688 ± 0.061
PPHTLTSTIRPN	0.73 ± 0.019
PPILRPAKSAQG	0.705 ± 0.024
PPIPPPPPLPPP	0.621 ± 0.023
PPIPSLPPASFP	0.69 ± 0.044
PPLGPRALPSPA	0.67 ± 0.038
PPLGPRARPPPR	0.734 ± 0.024
PPLLPPPSPPPP	0.684 ± 0.04
PPLPLPPPLLPP	0.659 ± 0.059
PPLPPAPLPLPT	0.639 ± 0.051
PPLPPLLFRSPP	0.687 ± 0.017
PPLPPLPVPPTL	0.738 ± 0.11
PPLPPPAPSFPT	0.684 ± 0.06
PPLPPPQDPRLP	0.7 ± 0.097
PPLPPPRYLPPT	0.7124 ± 0.0027
PPLPPSPLPLPP	0.664 ± 0.023
PPLPPSPPFPPP	0.653 ± 0.015
PPLPSAPSTYPA	0.634 ± 0.012
PPLPSMVLQRIY	0.589 ± 0.0065
PPLQFFLYRSWV	0.664 ± 0.044
PPLRPAPPPPLS	0.7 ± 0.12
PPLSAPPPSPSP	0.702 ± 0.065

Sequence	protein stability index
PPLSGNLPCFRF	0.713 ± 0.03
PPLSPPLPPPPS	0.7188 ± 0.0062
PPLSPPPPPPVP	0.688 ± 0.066
PPLTHPPPPLYL	0.694 ± 0.008
PPMALPELPLFP	0.738 ± 0.071
PPNLLPRPPPRG	0.559 ± 0.047
PPPALPPPPFPP	0.591 ± 0.011
PPPALPPPPRPP	0.604 ± 0.065
PPPAPPPLAPPL	0.713 ± 0.0086
PPPAPPPPPSSR	0.667 ± 0.007
PPPAPQTATPHR	0.714 ± 0.022
PPPCPPPPLSRP	0.666 ± 0.058
PPPCRPSQFPPL	0.742 ± 0.015
PPPCSFTRKRQR	0.664 ± 0.014
PPPDKTPERRPC	0.644 ± 0.054
PPPFPPPPARSL	0.474 ± 0.043
PPPFRFPALLPP	0.6778 ± 0.0007
PPPFSPLPLPPS	0.71 ± 0.044
PPPGPPLPPGLP	0.749 ± 0.033
PPPGSPLRPSRL	0.748 ± 0.12
PPPHLPPPPPTQ	0.658 ± 0.059
PPPHPALPHPLH	0.682 ± 0.01
